Data reported in US20100008978A1, “NANOPARTICLES EFFECTIVE FOR INTERNALIZATION INTO CELLS” (THE REGENTS OF THE UNIVERSITY OF CALIFORNIA, priority 2008, published 2010).
“Also recorded” adds a separate entry of the source.

Legend:
[1] = biological target: T1, epidermal growth factor receptor (EGFR) on tumor cells (human, UniProt P00533 25-1210); experiment: apparent KD, flow cytometry, fluorescent immunoliposomes on MDAMB468 cells, 4 C; 74 scFv/liposome
T1 construct: whole, on cells; Intact EGFR on A431 and MDAMB468 cells (1x10^6-3x10^6 EGFR/cell); also called EGFR-expressing A431 cells; MDAMB468 cells

[2] = biological target: T1, epidermal growth factor receptor (EGFR) …; experiment: apparent KD, flow cytometry, fluorescent immunoliposomes on MDAMB468 cells, 4 C; 148 scFv/liposome
[3] = biological target: T2, A431 cells expressing EGFR (Homo sapiens, UniProt P00533); experiment: scFv affinity for cells expressing EGFR (A431) by flow cytometry; assay type: binding
T2 construct: Human squamous carcinoma A431 cells expressing EGFR; endogenous in cells; host or cells: A431
Method: Human squamous carcinoma A431 cells expressing EGFR were grown to 80-90% confluence in RPMI medium supplemented with 10% fetal bovine serum and harvested by trypsinization. […] Cell binding was performed at 4° C. in FACS buffer in a volume calculated to ensure fivefold scFv excess and for a duration calculated to ensure that the reaction had reached equilibrium. After two washes with 200 μL of FACS buffer, cell-bound scFv was detected by the addition of 100 μl of 1 μg/ml biotinylated His probe (Santa Cruz Biotech.) and a 1:800 (v/v) dilution of streptavidin-PE (Biosource). After incubation at 4° C. for 30 min, the cells were washed twice and resuspended in PBS containing 4% (v/v) paraformaldehyde. Fluorescence was measured by flow cytometry in a FACS LSRII instrument (Becton Dickinson), and the median fluorescence intensity (MFI) values were fit to the equation:
MFI=MFImin+MFImax([Ab]/(KD+[Ab])
using the software program Kaleidagraph as described previously (Benedict et al. (1997) J. Immunol. Methods, 201: 223-231).

biotinylated EGFR-ECD = biological target: T3, biotinylated EGFR-ECD (Homo sapiens, UniProt P00533); experiment: KD of yeast-displayed scFv for biotinylated EGFR-ECD by flow cytometry; assay type: binding; conditions: concentrations as high as 8 μM
T3 construct: Recombinant EGFR-ECD was expressed in HEK293 cells; made in house; host or cells: HEK293
Method: Generally, six to eight different concentrations of biotinylated EGFR were used to span a range of concentrations from ten times above to ten times below the KD. Incubation volumes, times and yeast numbers were chosen to ensure that the studies were done in at least fivefold antigen excess and that equilibrium had been achieved (Razai et al. (2005) J. Mol. Biol. 351: 158-169). For anti-EGFR scFv, […] in 50 μl were incubated with biotinylated EGFR-ECD for 1 h at room temperature. […] Only yeast displaying scFv (as determined by binding of SV5 mAb) were gated for affinity measurements.

MDAMB468 cells = experiment: differential binding of scFv to cell lines by flow cytometry; design: species or system human; conditions: 1×10^6−3×10^6 EGFR/cell
A431 cells = biological target: T4, A431 cells (Homo sapiens, UniProt P00533); experiment: as above; conditions: 1×10^6−3×10^6 EGFR/cell
T4 construct: endogenous in cells; host or cells: A431

MDAMB453 cells = experiment: as above; conditions: 10^4 EGFR/cell
NR6 cells = experiment: as above; conditions: parental, EGFR negative
[4] = biological target: T5, EGFR (vIII) stably transfected NR6M cells (Homo sapiens, UniProt P00533, DELINS30-297G); experiment: as above
T5 construct: expressed in transfected cells; host or cells: NR6M (NR6 stably transfected with EGFRvIII)

B1: EGFR-targeted immunoliposome constructed from C10 scFv (other)
VH: EVQLVQSGAEVKKPGSSVKVSCKASGGTFSSYAISWVRQAPGQGLEWMGGIIPIFGTANYAQKFQGRVTITADESTSTAYMELSSLRSEDTAVYYCAREEGPYCSSTSCYGAFDIWGQGTLVTVSS
VL: QSVLTQDPAVSVALGQTVKITCQGDSLRSYFASWYQQKPGQAPTLVMYARNDRPAGVPDRFSGSKSGTSASLAISGLQSEDEADYYCAAWDDSLNGYLFGAGTKLTVL
modifications: free cysteine residue at the COOH terminus conjugated to Mal-PEG-DSPE and inserted into the liposome ; The scFv carries a free cysteine at the COOH terminus conjugated to Mal-PEG-DSPE and inserted into a 100-120 nm liposome. It is multivalent, at 12-148 scFv per liposome. None of this can be carried by the letters.
notes: also called C10 ILs; C10 IL; not shown: scFv linker, the C-terminal extension with the free cysteine and tags, and the Mal-PEG-DSPE liposome carrier
- Kd [1]: 1.75 nM
- Kd [2]: 0.36 nM

B2: 2224: P2/2 scFv combined with the VH CDR3 Gly to Ala mutation from P2/4; SEQ ID NO:17 and 24 (protein)
scFv: QSVLTQDPAVSVALGQTVKITCQGDSLRSYLASWYQQKPGQAPTLVTYARNDRPAGVPDRFSGSKSGTSASLAISGLQSEDEADYYCAAWDDSLNGYLFGAGTKLTVL
modifications: Synthetic antibody
- improvement in affinity compared to C10 scFv [3]: 280 fold

B3: C10: parental (wild-type) internalizing human anti-EGFR scFv from a non-immune phage library; SEQ ID NO:1 (protein)
scFv: EVQLVQSGAEVKKPGSSVKVSCKASGGTFSSYAISWVRQAPGQGLEWMGGIIPIFGTANYAQKFQGRVTITADESTSTAYMELSSLRSEDTAVYYCAREEGPYCSSTSCYGAFDIWGQGTLVTVSS
modifications: Synthetic antibody
- binding of yeast-displayed scFv to biotinylated recombinant EGFR (biotinylated EGFR-ECD): only minimal binding
- binding to MDAMB468 cells (MDAMB468 cells): stained
- binding to A431 cells (A431 cells): stained
- binding to MDAMB453 cells (MDAMB453 cells): did not stain
- binding to NR6 cells (NR6 cells): minimal binding; also recorded: did not stain
- binding to NR6M cells [4]: strong staining; also recorded: stained
